Data taken from patent publication US20200362024A1, “BIOLOGICAL MATERIALS AND USES THEREOF” (IMPERIAL INNOVATIONS LIMITED, priority 2009, published 2020).

Legend:
[1] = test system: primary human macrophages; assay: Cytokine synthesis in primary human macrophages stimulated with tenascin-C or its domains; assay type: cell-based
Description: Human monocytes were isolated from peripheral blood (London Blood Bank) and macrophages were derived from monocytes after differentiation for 4 days with 100 ng/ml of M-CSF as previously described (Foxwell (1998)).
(§1) Immediately after isolation, RA membrane cells and macrophages were cultured at 1×10^5 cells/well in RPMI 1640 containing 10% (v/v) FBS and 100 U/ml (Units/ml) penicillin/streptomycin in 96-well tissue culture plates for 24 hours before stimulation. Synovial fibroblasts (used only at either passage number 2 or 3) were cultured at 1×10^4 cells/well in DMEM containing 10% (v/v) FBS and 100 U/ml penicillin/streptomycin in 96-well tissue culture plates for 24 hours before stimulation.
(§2) Cells were incubated for 24 hours at 37° C. with the indicated doses of tenascin-C and recombinant tenascin-C fragments (1.0 μM-1.0 nM). Cells were also stimulated where indicated with LPS (1 ng/ml for human macrophages, 10 ng/ml for human fibroblasts, RA membrane cells and HEKs, 100 ng/ml for MEFS and BMDMs and 10 ng/ml for HEKS), PAM3 (10 ng/ml for human macrophages, human fibroblasts, and HEKs, 100 ng/ml for MEFs and BMDMs), murine IL-1 (5 ng/ml for MEFS) and murine TNF-α (100 ng/ml for MEFS). Unless specifically stated otherwise rough LPS was used for in vitro studies.
(§3) Where stated, cells were pre-incubated with 10 μg/ml anti-CD14 antibody, 10 μg/ml IL1 receptor antagonist, 10 μg/ml anti-TLR2 antibody, 25 μg/ml anti-TLR4 antibody, 10 or 25 μg/ml isotype control antibody, 25 μg/ml polymyxin B, or 1 μg/ml msbB LPS, for 30 minutes at 37° C. before stimulation. Where stated, recombinant tenascin-C and FBG, and LPS were boiled for 15 minutes before addition to cells
(§4) Supernatants were subsequently examined for the presence of the cytokines TNF-α, IL-6, and IL-8 by enzyme-linked immunosorbent assay (ELISA) according to the manufacturer's instructions. Absorbance was read on a spectrophotometric ELISA plate reader (Labsystems Multiscan Biochromic, Vantaa, Finland) and analyzed using the Ascent software program (Thermo Labsystems, Altrincham, UK).

[2] = test system: RA synovial fibroblasts; assay: Cytokine synthesis in RA synovial fibroblasts stimulated with tenascin-C, FBG or LPS; assay type: cell-based, human; details: 24 h; LPS 10 ng/ml
Text: (§5) RA membrane cells (representing a mixed population of all synovial cell types) were isolated from synovial membranes obtained from patients undergoing joint replacement surgery as previously described (Brennan (1989)). RA synovial fibroblasts were isolated from the mixed population of RA membrane cells as previously described (Brennan (1989)). The study was approved by the local Trust ethics committee (Riverside NHS Research Committee), and waste tissue (synovium after joint replacement surgery) was obtained only after receiving signed informed consent from the patient and anonymyzing the tissue to protect patient identity.
as §1, §2, §3, §4

[3] = test system: RA synovial membrane cells; assay: Cytokine synthesis in RA synovial membrane cells stimulated with FBG; assay type: cell-based, human; details: FBG 1.0-0.01 μM, 24 h, over spontaneous production
Text: as §5
Immediately after isolation, RA membrane cells and macrophages were cultured at 1×10^5 cells/well in RPMI 1640 containing 10% (v/v) FBS and 100 U/ml (Units/ml) penicillin/streptomycin in 96-well tissue culture plates for 24 hours before stimulation. […]
as §4

[4] = test system: knee joint of wild type mice; assay: Intra-articular injection of FBG into the knee joint of wild type mice; assay type: in vivo
Description: Wild type mice were anesthetized by intraperitoneal injection of 150 μl of Hypnorm diluted 1:10 in sterile water and then injected with 100 ng, 1 or 3 μg FBG in 10 μl of sterile PBS into the right knee joint using a sterile 33-gauge microcannula. Control mice received an injection of 10 μl PBS alone or were not injected.
On days 3 and 7, mice were euthanized, the knee joints were excised and fixed in 10% (volume/volume) buffered formalin, decalcified, with 10% EDTA and processed to paraffin.
Coronal tissue sections (4 μm) were cut at 7 depths throughout the joint; 80 μm apart and stained with hematoxylin and eosin or Safranin-O to assess joint pathology.
Inflammation (the influx of inflammatory cells into synovium (infiltrate) and the joint cavity (exudates), was graded using an arbitrary scale from 0 (no inflammation) to 3 (severe inflammation). Chondrocyte death was determined as the percentage of cartilage area containing empty lacunae in relation to the total area. Cartilage surface erosion was determined as the amount of cartilage lost in relation to the total cartilage area. Bone destruction was determined in 10 different areas of the total knee joint section. Destruction was graded on a scale of 0 (no damage) to 3 (complete loss of bone structure). Histological analysis was performed by an investigator who was blinded to the experimental groups. The mean score for each animal in an experimental group was calculated by averaging the histopathologic scores in at least 5 section depths per joint.

B1: FBG: recombinant fibrinogen-like globe, 227 amino acid globular domain at the C terminal of tenascin-C (protein)
chain: GLLYPFPKDCSQAMLNGDTTSGLYTIYLNGDKAEALEVFCDMTSDGGGWIVFLRRKNGRENFYQNWKAYAAGFGDRREEFWLGLDNLNKITAQGQYELRVDLRDHGETAFAVYDKFSVGDAKTRYKLKVEGYSGTAGDSMAYHNGRSFSTFDKDTDSAITNCALSYKGAFWYRNCHRVNLMGRYGDNNHSQGVNWFHWKGHEHSIQFAEMKLRPSNFRNLEGRRKRA
[1]; 1.0 μM tenascin-C domains, 24 h
  TNF-α, IL-6 and IL-8 synthesis in human macrophages: stimulated
[1]; boiled 15 minutes, 25 μg/ml polymyxin B pre-incubation, human macrophages and synovial fibroblasts
  cytokine stimulation: heat sensitivity and effect of polymyxin B: heat sensitive and unaffected by polymyxin B
[2]
  IL-6 synthesis in RA synovial fibroblasts: stimulated
  IL-8 synthesis in RA synovial fibroblasts: did not induce
[3]
  synthesis of IL-6, IL-8 and TNF-α in RA synovial membranes: further enhanced
[4]; 100 ng FBG intra-articular
  joint histology: No inflammation or proteoglycan loss
[4]; 1 μg FBG intra-articular, 3 days
  joint histology: inflammatory cell infiltration (FIG. 6f), mild synovitis, pannus formation (FIG. 6g) and proteoglycan loss (FIG. 6h) was observed
[4]; 1 μg FBG, 3 days (FIG. 6i)
  histological quantification: cartilage surface erosion and bone damage: modest amount
  histological quantification: cellular infiltrate and exudate and chondrocyte death: high levels
[4]; 3 μg FBG intra-articular
  joint histology: A similar response
[4]; intra-articular 100 ng, 1 or 3 μg
  joint inflammation: transient and dose dependent stimulation of joint inflammation
